Measured values taken from FireProtDB (doi:10.1111/j.1432-1033.1994.tb18977.x).

Conditions: Saccharomyces cerevisiae (strain ATCC 204508 / S288c), pH 7, 30 °C, Urea, Fluorescence, Potassium phosphate 50 mM

Sequence of Cytochrome c isoform 1 C108T, P00044 (P00044 whole entry C108T, canonical isoform): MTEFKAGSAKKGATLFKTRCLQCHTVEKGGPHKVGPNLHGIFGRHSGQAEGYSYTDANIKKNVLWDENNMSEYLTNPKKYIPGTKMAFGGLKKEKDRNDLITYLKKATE
Sequence of Cytochrome c isoform 1 R19C|C108T, P00044 R19C C108T (P00044 whole entry R19C/C108T, canonical isoform): as the sequence (P00044 whole entry C108T, canonical isoform) above, with R19C counted along it
Sequence of Cytochrome c isoform 1 wild type, P00044 (P00044 whole entry, canonical isoform): as the sequence (P00044 whole entry C108T, canonical isoform) above, with T108C counted along it
Sequence of Cytochrome c isoform 1 D96C|C108T, P00044 D96C C108T (P00044 whole entry D96C/C108T, canonical isoform): as the sequence (P00044 whole entry C108T, canonical isoform) above, with D96C counted along it

Cytochrome c isoform 1 C108T, P00044
ddG of mutation (higher = less stable) (structure 1YCC): -4.09 kcal/mol | denaturant m value (structure 1YCC): 1.79 kcal/mol/M | denaturant midpoint (higher = more stable) (structure 1YCC): 3.6 M | unfolding free energy (structure 1YCC): 6.48 kcal/mol

Cytochrome c isoform 1 D96C|C108T, P00044 D96C C108T
ddG of mutation (higher = less stable) (structure 1YCC): -0.91 kcal/mol | denaturant m value (structure 1YCC): 1.2 kcal/mol/M | denaturant midpoint (higher = more stable) (structure 1YCC): 2.8 M | unfolding free energy (structure 1YCC): 3.3 kcal/mol

Cytochrome c isoform 1 R19C|C108T, P00044 R19C C108T
ddG of mutation (higher = less stable) (structure 1YCC): -4.21 kcal/mol | denaturant m value (structure 1YCC): 1.79 kcal/mol/M | denaturant midpoint (higher = more stable) (structure 1YCC): 3.7 M | unfolding free energy (structure 1YCC): 6.6 kcal/mol

Cytochrome c isoform 1 wild type, P00044
denaturant m value: 0.91 kcal/mol/M | denaturant midpoint (higher = more stable): 2.6 M | unfolding free energy: 2.39 kcal/mol
